T1: PrimPol WT (human) (UniProt Q96LW4)
T1 sequence: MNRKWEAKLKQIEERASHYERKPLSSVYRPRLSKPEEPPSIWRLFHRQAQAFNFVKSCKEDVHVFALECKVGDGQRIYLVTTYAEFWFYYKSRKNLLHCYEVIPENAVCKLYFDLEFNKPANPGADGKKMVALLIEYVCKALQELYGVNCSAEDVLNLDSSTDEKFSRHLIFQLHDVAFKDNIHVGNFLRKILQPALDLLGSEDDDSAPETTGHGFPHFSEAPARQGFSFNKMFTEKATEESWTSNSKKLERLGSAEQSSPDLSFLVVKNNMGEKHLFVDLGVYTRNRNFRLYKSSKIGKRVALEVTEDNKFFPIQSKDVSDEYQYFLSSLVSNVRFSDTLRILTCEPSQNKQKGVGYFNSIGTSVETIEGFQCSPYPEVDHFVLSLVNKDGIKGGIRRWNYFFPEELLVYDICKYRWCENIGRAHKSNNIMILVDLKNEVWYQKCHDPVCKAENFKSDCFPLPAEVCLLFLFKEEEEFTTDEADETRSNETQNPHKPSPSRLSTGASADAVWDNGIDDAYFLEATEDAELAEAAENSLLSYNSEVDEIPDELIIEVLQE


Tests used:
PrimPol WT (human) [1] = target: T1, PrimPol WT (human)
PrimPol WT (human) [2] = target: T1, PrimPol WT (human); remark: listed apart in the source

Row | primer extension by 150 nM PrimPol on a 25/70-mer primer/template with increasing FL-PolDIP2 (up to 500 nM): percent of DNA substrate extended >3 nt (PrimPol WT (human) [1]) [%] | filter binding of [α-32P]dCTP (1 μM dCTP, 300 nM primer/template, 600 nM PrimPol and 600 nM FL-PolDIP2, Ca2+, 37°C), against PrimPol alone (PrimPol WT (human) [2]) [fold] | primer extension by 150 nM PrimPol on a 25/70-mer primer/template with increasing T3-PolDIP2 (from 150 nM): percent of DNA substrate extended >3 nt (PrimPol WT (human) [1]) [%] | Molecule
1 | 46 | 3 |  | full-length (FL) human PolDIP2 tagged with C-terminal hexa-histidine (from UniProt Q9Y2S7 52-368) (natural protein)
2 |  |  | 32 | T3-PolDIP2 (AA 217–368), C-terminal fragment with the ApaG-like domain (domain or fragment) LRAWQEKNHPWLELSDVHRETTENIRVTVIPFYMGMREAQNSHVYWWRYCIRLENLDSDVVQLRERHWRIFSLSGTLETVRGRGVVGREPVLSKEQPAFQYSSHVSLQASSGHMWGTFRFERPDGSHFDVRIPPFSLESNKDEKTPPSGLHW

From paper PMC7913696
